Common to all, as to experiment: competition
For series [1], the target named is T1, Fis (Escherichia coli, UniProt P0A6R3 1-98).
Series [2] has as its target T1, Fis. The source holds these as a separate data set.
In series [3] the target is T1, Fis. The source holds these as a separate data set.

Where two headings read alike, the source gives them in different places.

T1 sequence (P0A6R3 whole entry): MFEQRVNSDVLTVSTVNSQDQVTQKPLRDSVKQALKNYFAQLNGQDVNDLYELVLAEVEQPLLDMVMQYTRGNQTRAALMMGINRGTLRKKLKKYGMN

B1: F28 (dsDNA)
DNA 1: AAATTTGTTTGAGCGTTGAGCAAATTT
DNA 2: AAATTTGCTCAACGCTCAAACAAATTT
With B1, in the series with Fis [1], the binding result is reported as “binds”.

B2: F1 (dsDNA)
DNA 1: AAATTTGTTTGAATTTTGAGCAAATTT
DNA 2: AAATTTGCTCAAAATTCAAACAAATTT
On to B2, for which the binding result with Fis [2] was “binds”.

B3: F29 (dsDNA)
DNA 1: AAATTTGTTTGGGCGCTGAGCAAATTT
DNA 2: AAATTTGCTCAGCGCCCAAACAAATTT
Regarding B3, in the series with Fis [3], the binding result is reported as “binds”.

(Values after PMC4579036.)
